We go through 6 substances from publication PMC10960832.

Test [1] deals with C-terminal avi tagged 53BP1 Tudor domain, biotinylated (human) (UniProt Q12888). Kind of test: AlphaScreen or HTRF; TR-FRET competition: 0.5 uM His-tagged i53, 0.5 uM C-terminal avi tagged 53BP1, 5 nM europium anti-His antibody, 0.5x streptavidin-XL665, i53 variant 5000-4.8 nM; 50 mM Tris pH 7.5, 150 mM NaCl, 0.02% Tween-20, 0.05% BSA; 2 h at room temperature; non-linear 4 parameter curve ….

The target of test [2] is 53BP1 Tudor domain (53BP1 residues 1484–1603) (human) (UniProt Q12888).

One may read the EC50 as the concentration needed to bring the measured effect to its halfway point. A lower EC50 goes with a more potent agent. As for i53 (WT) (designed binder), the EC50 in test [1] worked out at 1080 nM. Still for that read-out and setting: under i53 variant L67H (designed binder) stands 465 nM.

In the case of i53 variant L67H.H68Y (designed binder), the EC50 in test [1] turned out to be 501 nM. i53 variant L67R (designed binder) came in with an EC50 in test [1] of 458 nM. The potency in increasing HDR / decreasing NHEJ at HBB in HSPCs (dose response of purified protein in the electroporation mix, HBB-SNP AAV6), relative to parental i53 in test [2] was found to be 3 fold. For “i53 variant T12V.T14H.L67H (designed binder)”, in that order: 338 nM and 3 fold. For “i53 variant T12Y.T14E.L67R (designed binder)”, in test [1], the EC50 amounted to 179 nM.
